T1: KW27-13 (human CD39 mutant, C-terminal EGFP) (human, UniProt P49961 1-510)
T1 construct: expressed on HEK293F cells; not shown: C-terminal EGFP fusion (vector pCMV3-GFPSpark)
T1 chain: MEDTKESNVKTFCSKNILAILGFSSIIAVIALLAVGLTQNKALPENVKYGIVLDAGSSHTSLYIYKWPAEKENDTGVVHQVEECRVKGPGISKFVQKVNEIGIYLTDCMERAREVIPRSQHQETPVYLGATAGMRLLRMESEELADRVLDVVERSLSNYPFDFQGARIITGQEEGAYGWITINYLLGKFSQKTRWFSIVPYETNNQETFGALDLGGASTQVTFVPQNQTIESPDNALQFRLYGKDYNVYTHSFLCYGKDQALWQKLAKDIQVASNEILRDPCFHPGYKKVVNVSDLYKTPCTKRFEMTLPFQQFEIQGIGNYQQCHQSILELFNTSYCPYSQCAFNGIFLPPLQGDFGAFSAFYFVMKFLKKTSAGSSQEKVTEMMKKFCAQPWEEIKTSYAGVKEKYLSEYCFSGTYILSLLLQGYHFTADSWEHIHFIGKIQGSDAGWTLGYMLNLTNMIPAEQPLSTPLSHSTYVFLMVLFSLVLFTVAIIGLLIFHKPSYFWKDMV

T2: KW27-5 (human CD39 mutant, C-terminal EGFP) (human, UniProt P49961 1-510)
T2 construct: expressed on HEK293F cells; not shown: C-terminal EGFP fusion (vector pCMV3-GFPSpark)
T2 chain: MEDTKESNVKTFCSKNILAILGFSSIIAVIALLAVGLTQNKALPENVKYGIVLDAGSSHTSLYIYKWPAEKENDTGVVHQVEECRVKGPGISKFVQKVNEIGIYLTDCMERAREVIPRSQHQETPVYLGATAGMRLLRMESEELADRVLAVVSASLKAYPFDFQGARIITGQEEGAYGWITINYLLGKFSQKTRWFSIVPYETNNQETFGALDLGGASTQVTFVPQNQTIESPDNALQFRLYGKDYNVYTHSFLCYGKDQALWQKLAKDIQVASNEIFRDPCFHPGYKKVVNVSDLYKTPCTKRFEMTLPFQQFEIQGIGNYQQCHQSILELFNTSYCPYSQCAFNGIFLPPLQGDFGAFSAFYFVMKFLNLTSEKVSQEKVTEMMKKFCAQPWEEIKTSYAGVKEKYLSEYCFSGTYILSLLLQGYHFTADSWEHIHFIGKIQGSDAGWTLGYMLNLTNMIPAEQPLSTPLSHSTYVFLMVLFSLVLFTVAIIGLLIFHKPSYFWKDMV

T3: KW27-18 (human CD39 mutant, C-terminal EGFP) (human, UniProt P49961 1-510)
T3 construct: expressed on HEK293F cells; not shown: C-terminal EGFP fusion (vector pCMV3-GFPSpark)
T3 chain: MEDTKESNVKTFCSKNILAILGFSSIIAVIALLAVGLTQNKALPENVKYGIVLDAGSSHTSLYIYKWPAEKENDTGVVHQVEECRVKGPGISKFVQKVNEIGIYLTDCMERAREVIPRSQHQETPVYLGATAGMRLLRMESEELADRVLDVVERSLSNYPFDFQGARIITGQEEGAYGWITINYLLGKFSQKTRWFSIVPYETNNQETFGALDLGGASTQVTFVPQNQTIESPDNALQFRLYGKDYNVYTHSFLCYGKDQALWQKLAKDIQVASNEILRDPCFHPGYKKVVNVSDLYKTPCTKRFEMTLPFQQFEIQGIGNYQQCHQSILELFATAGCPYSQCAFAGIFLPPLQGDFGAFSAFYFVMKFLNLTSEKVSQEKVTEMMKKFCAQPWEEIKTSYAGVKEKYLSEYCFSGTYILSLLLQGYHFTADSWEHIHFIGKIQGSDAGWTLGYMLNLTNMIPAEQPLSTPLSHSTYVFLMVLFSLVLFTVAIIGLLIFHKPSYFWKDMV

T4: KW27-11 (human CD39 mutant, C-terminal EGFP) (human, UniProt P49961 1-510)
T4 construct: expressed on HEK293F cells; 'D3565' as printed is read as D356S; not shown: C-terminal EGFP fusion (vector pCMV3-GFPSpark)
T4 chain: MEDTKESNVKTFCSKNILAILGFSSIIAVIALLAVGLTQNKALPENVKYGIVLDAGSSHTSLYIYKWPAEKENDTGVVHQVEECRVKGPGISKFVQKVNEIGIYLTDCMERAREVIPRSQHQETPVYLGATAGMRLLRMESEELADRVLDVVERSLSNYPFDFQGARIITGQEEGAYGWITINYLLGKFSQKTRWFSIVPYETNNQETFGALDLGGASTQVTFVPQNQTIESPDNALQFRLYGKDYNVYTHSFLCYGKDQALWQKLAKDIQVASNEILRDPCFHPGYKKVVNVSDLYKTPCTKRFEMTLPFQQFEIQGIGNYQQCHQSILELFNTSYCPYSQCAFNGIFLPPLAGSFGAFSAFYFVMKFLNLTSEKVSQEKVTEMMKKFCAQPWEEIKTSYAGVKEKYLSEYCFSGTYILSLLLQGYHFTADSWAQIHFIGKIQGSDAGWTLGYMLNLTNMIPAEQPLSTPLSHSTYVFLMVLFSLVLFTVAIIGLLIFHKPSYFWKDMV


Experiments:
Assay in all cases: FACS, mutant-EGFP on HEK293F cells
[1] = target: T1, KW27-13 (human CD39 mutant, C-terminal …)
Protocol: (§1) Briefly, the human CD39 mutants were generated by gene synthesis and then cloned into an expression vector pCMV3-GFPSpark. The vectors containing the validated mutated sequences were prepared and transfected into HEK293F cells. Three days post transfection, the cells were collected to testing EGFP for transgene expression. A range of dosages of antibodies (start from 100 nM, 3-folds dilution, 11 points) were tested on the 20 generated mutants and stained by AlexFluor647 labelled anti-hIgG by FACS. Antibody binding was descripted as relative binding which is derived from AlexFluor647 intensity divided by GFP intensity.

[2] = target: T2, KW27-5 (human CD39 mutant, C-terminal …)
Protocol: as §1

[3] = target: T3, KW27-18 (human CD39 mutant, C-terminal …)
Protocol: as §1

[4] = target: T4, KW27-11 (human CD39 mutant, C-terminal …)
Protocol: as §1

Row | binding result [1] | binding result [2] | binding result [3] | binding result [4] | Binder
1 | binds | binds | binds | binds | hu23.H5L5 (antibody, V domains shown, humanized c23) VH: QVQLVQSGAEVKKPGASVKVSCKASGYNLKDTFLHWVRQAPGQGLEWMGRIDPANGNIKYDPKFQGRVTITADTSANTAYMELISLRSEDTAVYYCANSPYYYGSGYRIFDVWGQGTTVTVSS VL: QIVLTQSPATLSLSPGERATLSCSAFSSVNYMHWYQQKPGQAPRLLIYTTSNLASGIPTRFSGSGSGTSYTLTISSLEPEDFAVYYCQQRSTYPFTFGQGTKLEIK
2 | binds | binds | binds | binds | c34 (antibody, V domains shown, its making is not described; also called chimeric antibody c34) VH: EIQVQQSGPELVKPGASVKVSCKASGYSFTDYNMYWVKQSHGKSLEWIGFIDPYNGYTSYNQKFKGKATLTIDKSSSTAFMHLNSLTSEDSAVYYCAIYGYDDAYYFDYWGQGTTLTVSS VL: QIVLTQSPAIMSASPGEKVTITCSATSSVSYMHWFRQKPGTSPKLWIYSTSNLASGVPARFSGSGSGTSYSLTISRMAAEDAATYYCQQRITYPFTFGSGTKLEIT
3 | binds | binds | binds | binds | Antibody 9-8B (antibody, V domains shown) VH: QIQLVQSGPELKKPGETVKISCKASGYTFTHYGMNWVKQAPGKGLKWMGWINTYTGELTYADDFKGRFAFSLETSASTAYLQINNLKNEDTATYFCARRAYYRYDYVMDYWGQGTSVTVSS VL: DIVMTQSQKFMSTSVGDRVSVTCKASHNVGTNVAWYQQKPGQSPKALIYSASYRYSGVPGRFTGSGSGTDFTLTISNVQSEDLAEYFCHQYNNYPYTFGGGTKLEIK
4 | binds | binds | binds | binds | Antibody T895 (antibody, V domains shown, also called 31895) VH: EVQLQQSGPELVKPGASVKMSCKASGYTFTDYNMHWVKQSHGRTLEWIGYIVPLNGGSTFNQKFKGRATLTVNTSSRTAYMELRSLTSEDSAAYYCARGGTRFAYWGQGTLVTVSA VL: not shown
5 | binds | binds | binds | binds | c35 (antibody, V domains shown, its making is not described; also called chimeric antibody c35) VH: EVRLQQSGAELVKPGASVKLSCTASGFNIEDTYVHWMKQRPEQGLEWIGRIDPAIDNSKYDPKFQGKATITAVSSSNTAYLQLSSLTSEDTAVYYCALYDGYNVYAMDYWGQGTSVTVSS VL: DIVMTQAAFSNPVTLGTSASISCRSSKNLLHSNGITYLYWYLQRPGQSPQLLIYRASTLASGVPNRFSGSESGTDFTLRISRVEAEDVGVYYCAQLLELPHTFGGGTKLEIK

From patent publication US20210388105A1 (ELPISCIENCE SUZHOU BIOPHARMA, published 2021)
